# Test results as given in publication PMC5934816.
# Target: mLDH, mammalian lactate dehydrogenase (bovine) (UniProt P19858)
# Test: ELONA
# Conditions: ELONA: 500 ng immobilized protein; aptamer in HMCKN (2 mM HEPES, 0.2 mM MgCl2, 0.2 mM CaCl2, 0.2 mM KCl, 15 mM NaCl, pH 7.4), 2 h, room temperature; washes …
sequence,measurement,value
GCCTGTTGTGAGCCTCCTAACCAGCTCGTAGAAAAAAAAAGATATTGCTTCAATTATCTCCTCGCGTTCAATTAACCCAGCATGCTTATTCTTGTCTCCC [rLDH 4],binding signal,0.053 OD450
